Test results from paper PMC4785402, “Structure of ThiM from Vitamin B1 biosynthetic pathway of Staphylococcus aureus – Insights into a novel pro-drug approach addressing MRSA infections” (Scientific Reports, 2016).

Assays:
SaThiM = biological target: T1, SaThiM (Staphylococcus aureus, UniProt Q6GEY3); assay: X-ray crystal structure of soaked complex, […] Å; assay type: binding; details: Mg2+ in four of the six active sites; active site at monomer interface
T1 construct: gene thiM; homotrimer, active sites between two monomers
T1 sequence (Q6GEY3 1-263): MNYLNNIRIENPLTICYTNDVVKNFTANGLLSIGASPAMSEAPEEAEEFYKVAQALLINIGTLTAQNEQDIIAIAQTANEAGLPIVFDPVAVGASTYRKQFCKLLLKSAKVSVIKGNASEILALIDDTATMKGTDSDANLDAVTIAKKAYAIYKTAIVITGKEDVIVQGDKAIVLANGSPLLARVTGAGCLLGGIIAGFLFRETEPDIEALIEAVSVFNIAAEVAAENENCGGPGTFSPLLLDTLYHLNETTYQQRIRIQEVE

Cc1nccn1CCO = assay: purified protein; details: 4 mM ATP, 10 mM MgCl2, 50 mM potassium phosphate pH 7.5, 37 °C
purified protein = substrate: Cc1nn(C)c(C)c1CCO; assay: purified protein; details: 4 mM ATP, 10 mM MgCl2, 50 mM potassium phosphate pH 7.5, 37 °C

For `Cc1ncsc1CCO` [THZ, 5-(hydroxyethyl)-4-methylthiazole], the “X-ray crystal structure of soaked complex, 1.90 Å” value (SaThiM) was “THZ identically occupies all six active sites of the two trimers in the asymmetric unit”.

Molecule “SaThiM (Staphylococcus aureus subsp. aureus MRSA252)” has a Km (Cc1nccn1CCO) of 831 ± 169 µM and a kcat (Cc1nccn1CCO) of 3.63 ± 0.05 s⁻¹.

B1: SaThiM (Staphylococcus aureus subsp. aureus MRSA252) (protein)
chain: T1 sequence (Q6GEY3 1-263)
B1 showed a Km (purified protein) of 834 ± 147 µM and a kcat (purified protein) of 3.58 ± 0.133 s⁻¹.
